T1: MED17 (mouse (Mus musculus; endogenous in CH12), UniProt Q8VCD5 1-649)
T1 construct: MED17, Mus musculus, endogenous Head module scaffold subunit of Mediator; source: endogenous, CH12 mouse B lymphoma nuclear extract; immunopurified as part of Mediator (FLAG M2 agarose, FLAG peptide elution)
T1 sequence (looked up): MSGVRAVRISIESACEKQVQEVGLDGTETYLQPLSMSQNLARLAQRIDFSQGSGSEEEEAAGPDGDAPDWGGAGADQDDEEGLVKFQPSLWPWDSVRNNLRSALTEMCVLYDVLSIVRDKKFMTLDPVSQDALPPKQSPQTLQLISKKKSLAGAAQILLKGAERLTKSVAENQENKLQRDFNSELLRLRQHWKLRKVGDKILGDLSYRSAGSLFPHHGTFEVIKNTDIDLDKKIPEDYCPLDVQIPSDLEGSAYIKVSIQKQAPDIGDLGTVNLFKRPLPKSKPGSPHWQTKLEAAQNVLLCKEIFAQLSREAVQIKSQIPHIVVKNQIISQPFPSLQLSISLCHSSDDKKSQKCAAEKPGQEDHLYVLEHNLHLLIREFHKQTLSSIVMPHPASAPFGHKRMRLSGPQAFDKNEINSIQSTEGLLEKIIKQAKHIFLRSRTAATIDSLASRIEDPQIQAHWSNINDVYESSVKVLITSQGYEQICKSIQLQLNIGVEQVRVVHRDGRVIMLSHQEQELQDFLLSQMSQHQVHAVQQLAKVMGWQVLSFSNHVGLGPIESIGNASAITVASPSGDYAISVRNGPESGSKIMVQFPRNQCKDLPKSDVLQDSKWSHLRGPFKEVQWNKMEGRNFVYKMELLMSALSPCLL

T2: MED27 (mouse (Mus musculus; endogenous in CH12), UniProt Q9DB40 1-311)
T2 construct: MED27, Mus musculus, endogenous upper Tail subunit of Mediator; source: endogenous, CH12 mouse B lymphoma nuclear extract; immunopurified as part of Mediator (FLAG M2 agarose, FLAG peptide elution)
T2 sequence (looked up): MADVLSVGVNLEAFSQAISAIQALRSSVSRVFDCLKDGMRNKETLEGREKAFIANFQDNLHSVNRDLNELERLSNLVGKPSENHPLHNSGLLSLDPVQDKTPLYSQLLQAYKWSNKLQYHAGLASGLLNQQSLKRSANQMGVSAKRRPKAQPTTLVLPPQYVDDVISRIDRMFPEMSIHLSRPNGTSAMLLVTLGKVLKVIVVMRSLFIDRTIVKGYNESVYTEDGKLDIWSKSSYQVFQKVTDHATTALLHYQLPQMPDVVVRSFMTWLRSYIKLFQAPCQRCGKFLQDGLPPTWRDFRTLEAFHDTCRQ

T3: MED29 (mouse (Mus musculus; endogenous in CH12), UniProt Q9DB91 1-199)
T3 construct: MED29, Mus musculus, endogenous upper Tail subunit of Mediator; source: endogenous, CH12 mouse B lymphoma nuclear extract; immunopurified as part of Mediator (FLAG M2 agarose, FLAG peptide elution)
T3 sequence (looked up): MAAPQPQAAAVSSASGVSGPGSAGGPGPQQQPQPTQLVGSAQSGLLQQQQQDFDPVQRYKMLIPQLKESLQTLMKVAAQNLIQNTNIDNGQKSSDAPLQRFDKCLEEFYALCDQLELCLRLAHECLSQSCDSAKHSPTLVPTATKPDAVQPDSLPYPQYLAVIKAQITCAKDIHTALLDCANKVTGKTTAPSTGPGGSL

T4: MED22 (mouse (Mus musculus; endogenous in CH12), UniProt Q62276 1-200)
T4 construct: MED22, Mus musculus, endogenous Head module subunit of Mediator; source: endogenous, CH12 mouse B lymphoma nuclear extract; immunopurified as part of Mediator (FLAG M2 agarose, FLAG peptide elution)
T4 sequence (looked up): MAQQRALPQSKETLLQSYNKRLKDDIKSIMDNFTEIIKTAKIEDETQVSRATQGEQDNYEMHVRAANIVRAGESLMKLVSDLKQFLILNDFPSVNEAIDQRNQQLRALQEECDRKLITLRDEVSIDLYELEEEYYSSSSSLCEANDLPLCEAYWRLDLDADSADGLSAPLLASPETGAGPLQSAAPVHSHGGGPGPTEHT

T5: MED20 (mouse (Mus musculus; endogenous in CH12), UniProt Q9R0X0 1-212)
T5 construct: MED20, Mus musculus, endogenous Head module subunit of Mediator; source: endogenous, CH12 mouse B lymphoma nuclear extract; immunopurified as part of Mediator (FLAG M2 agarose, FLAG peptide elution)
T5 sequence (looked up): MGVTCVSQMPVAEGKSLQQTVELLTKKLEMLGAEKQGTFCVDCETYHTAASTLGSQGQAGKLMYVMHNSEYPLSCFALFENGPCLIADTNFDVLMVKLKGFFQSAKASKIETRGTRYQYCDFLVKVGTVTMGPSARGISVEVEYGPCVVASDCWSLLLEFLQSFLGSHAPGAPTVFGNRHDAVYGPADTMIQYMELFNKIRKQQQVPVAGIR

B1: MED30 (natural protein, mouse (Mus musculus; endogenous in CH12), UniProt Q9CQI9 1-178, looked up)
chain: MSTPPLAPTGMASGPFGGPQAQQAAREVNTATLCRIGQETVQDIVYRTMEIFQLLRNMQLPNGVTYHTGTYQDRLTKLQDHLRQLSILFRKLRLVYDKCNENCGGMDPIPVEQLIPYVDEDGSKNDDRAGPPRFASEERREIVEVNKKLKQKNQQLKQIMDQLRNLIWDINAMLAMRN
notes: MED30, Mus musculus, endogenous upper Tail subunit of Mediator; source: endogenous, CH12 mouse B lymphoma nuclear extract; immunopurified as part of Mediator (FLAG M2 agarose, FLAG peptide elution)
B2: MED28 (natural protein, mouse (Mus musculus; endogenous in CH12), UniProt Q920D3 1-178, looked up)
chain: MAASLGGMFTGQPPGPPPPPPGLPGQASLLQAAPGAPRPSNSTLVDELESSFEACFASLVSQDYVNGTDQEEIRTGVDQCIQKFLDIARQTECFFLQKRLQLSVQKPDQVIKEDVSELRSELQRKDALVQKHLTKLRHWQQVLEDINVQHKKPADMPQGSLAFLEQASANIPAPLKQT
notes: MED28, Mus musculus, endogenous upper Tail subunit of Mediator; source: endogenous, CH12 mouse B lymphoma nuclear extract; immunopurified as part of Mediator (FLAG M2 agarose, FLAG peptide elution)
B3: MED4 (natural protein, mouse (Mus musculus; endogenous in CH12), UniProt Q9CQA5 1-270, looked up)
chain: MAASSSGEKEKERMGGVSGMAGLGSTRERLLSALEDLEVLSRELIEMLAISRNQKLLQLEEENQVLELLIHRDGDFQELMKLALNQGKVHHEMQALEKEVEKRDSDIQQLQKQLKEAEQILATAVYQAKEKLKSIEKARKGAISSEEIIKYAHRISASNAVCAPLTWVPGDPRRPYPTDLEMRSGLLGQMNNPSTSGVNGHLPGDALAAGRLPDVLAPQYPWQSNDMSVNMLPPNHSSDFLLEPPGHNKENEDDVEVMSTDSSSSSSDSD
notes: MED4, Mus musculus, endogenous Middle module subunit of Mediator; source: endogenous, CH12 mouse B lymphoma nuclear extract; immunopurified as part of Mediator (FLAG M2 agarose, FLAG peptide elution)
B4: MED18 (natural protein, mouse (Mus musculus; endogenous in CH12), UniProt Q9CZ82 1-208, looked up)
chain: MEAPPVTMMPVTGGTINMMEYLLQGSVLDHSLESLIHRLRGLCDNMEPETFLDHEMVFLLKGQQASPFVLRARRSMDRAGAPWHLRYLGQPEMGDKNRHALVRNCVDIATSENLTDFLMEMGFRMDHEFVAKGHLFRKGIMKVVVYKIFRILVPGNTDSTEALSLSYLVELSVVAPAGQDMVSDDMRNFAEQLKPLVHLEKIDPKRLM
notes: MED18, Mus musculus, endogenous Head module subunit of Mediator; source: endogenous, CH12 mouse B lymphoma nuclear extract; immunopurified as part of Mediator (FLAG M2 agarose, FLAG peptide elution)
B5: MED11 (natural protein, mouse (Mus musculus; endogenous in CH12), UniProt Q9D8C6 1-117, looked up)
chain: MATYSLANERLRALEDIEREIGAILQNAGTAILELSKEKTNERLLDRQAAAFTTSVQHVEAELSAQIRYLTQVATGQPHEGSSYSSRKDCQMALKRVDYARLKISDVARTCEQMLEN
notes: MED11, Mus musculus, endogenous Head module subunit of Mediator; source: endogenous, CH12 mouse B lymphoma nuclear extract; immunopurified as part of Mediator (FLAG M2 agarose, FLAG peptide elution)

Key:
Assay in all cases: cryo-EM structure; endogenous mouse Mediator immunopurified from CH12 nuclear extract through 3×FLAG-MED19 or 3×FLAG-MED25; eluted in 50 mM HEPES pH 7.9, 100 mM KCl, 5% glycerol, 1 mM EDTA, 0.005% NP-40; map at 4.0 Å overall, focused refinement of the MED1 and knob/hook ends (6-10 Å)
Settings in all cases: both partners purified
MED17 = target: T1, MED17
MED27 = target: T2, MED27
MED29 = target: T3, MED29
MED22 = target: T4, MED22
MED30 = target: B1
MED1 = target: T6, MED1 (mouse (Mus musculus; endogenous in CH12), UniProt Q925J9 1-1575)
T6 construct: MED1, Mus musculus, endogenous Middle module subunit of Mediator; only a partial model of the folded N-terminal portion was built; Partial model only; this part of the map is at about 6-8 Å; also called Mediator subunit MED1; source: endogenous, CH12 mouse B lymphoma nuclear extract; immunopurified as part of Mediator (FLAG M2 agarose, FLAG peptide elution)

MED20 = target: T5, MED20
MED28 = target: B2

T6 sequence (Q925J9 whole entry): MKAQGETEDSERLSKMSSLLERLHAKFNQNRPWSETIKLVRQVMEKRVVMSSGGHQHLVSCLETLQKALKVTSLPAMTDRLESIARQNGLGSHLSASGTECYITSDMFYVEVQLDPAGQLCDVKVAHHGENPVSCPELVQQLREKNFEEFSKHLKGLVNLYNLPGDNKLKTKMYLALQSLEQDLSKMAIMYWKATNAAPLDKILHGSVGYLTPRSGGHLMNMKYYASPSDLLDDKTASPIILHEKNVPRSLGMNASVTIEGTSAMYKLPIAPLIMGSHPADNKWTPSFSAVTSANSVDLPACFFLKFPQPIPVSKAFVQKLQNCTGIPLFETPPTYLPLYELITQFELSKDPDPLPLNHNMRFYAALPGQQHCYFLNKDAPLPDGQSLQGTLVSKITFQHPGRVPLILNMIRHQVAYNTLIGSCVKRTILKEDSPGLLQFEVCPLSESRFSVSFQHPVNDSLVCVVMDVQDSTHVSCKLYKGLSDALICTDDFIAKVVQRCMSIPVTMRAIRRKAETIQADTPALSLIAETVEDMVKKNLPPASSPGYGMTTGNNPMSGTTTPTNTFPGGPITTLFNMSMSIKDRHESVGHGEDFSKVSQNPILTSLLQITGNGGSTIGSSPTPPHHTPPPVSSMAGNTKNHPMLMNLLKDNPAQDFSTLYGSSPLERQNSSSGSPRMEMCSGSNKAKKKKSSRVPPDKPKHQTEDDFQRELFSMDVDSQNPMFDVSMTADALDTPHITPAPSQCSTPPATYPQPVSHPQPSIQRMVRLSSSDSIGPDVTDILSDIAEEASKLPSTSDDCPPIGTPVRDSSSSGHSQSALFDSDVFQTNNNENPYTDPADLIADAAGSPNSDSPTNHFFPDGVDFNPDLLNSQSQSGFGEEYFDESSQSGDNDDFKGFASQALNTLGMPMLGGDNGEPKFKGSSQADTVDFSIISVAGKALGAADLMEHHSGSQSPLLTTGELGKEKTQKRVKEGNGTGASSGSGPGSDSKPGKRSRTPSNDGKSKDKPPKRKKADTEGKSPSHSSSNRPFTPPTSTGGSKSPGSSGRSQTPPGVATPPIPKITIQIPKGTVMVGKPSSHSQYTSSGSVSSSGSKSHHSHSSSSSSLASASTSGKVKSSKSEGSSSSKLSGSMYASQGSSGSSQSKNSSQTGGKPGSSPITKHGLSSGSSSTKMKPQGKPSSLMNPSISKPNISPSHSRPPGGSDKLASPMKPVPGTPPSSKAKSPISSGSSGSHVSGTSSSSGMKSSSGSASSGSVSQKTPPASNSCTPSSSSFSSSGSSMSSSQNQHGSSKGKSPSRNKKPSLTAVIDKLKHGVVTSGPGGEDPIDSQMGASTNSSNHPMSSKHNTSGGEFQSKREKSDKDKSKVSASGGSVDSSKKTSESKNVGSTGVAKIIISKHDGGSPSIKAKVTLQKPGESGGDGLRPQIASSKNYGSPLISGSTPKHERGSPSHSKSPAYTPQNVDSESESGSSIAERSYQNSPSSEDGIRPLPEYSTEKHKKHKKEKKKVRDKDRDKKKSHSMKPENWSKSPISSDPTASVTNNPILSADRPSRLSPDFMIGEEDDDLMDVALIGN

binding result (MED17) | binding result (MED27) | binding result (MED29) | binding result (MED22) | binding result (MED30) | binding result (MED1) | binding result (MED20) | binding result (MED28) | Binder
binds | binds | binds | binds | – | – | – | – | B1
binds | binds | binds | binds | binds | – | – | – | B2
– | – | – | – | – | binds | – | – | B3
binds | binds | – | – | – | – | binds | – | B4
binds | – | – | binds | binds | – | – | binds | B5
